This test deals with AP2α/σ2 hemicomplex, both subunits fused to the Venus C-terminal fragment and V5 (UniProt O94973). As to the kind of experiment: split reporter (BiFC, NanoBiT); HEK293 cells co-transfected with AP2α-Venus-C-V5, AP2σ2-Venus-C-V5 and Nef-HA-Venus-N (400 ng each); fixed the next day in 2% PFA; Venus fluorescence (FITC channel) read by flow cytometry as MFI. A general note: A flow cytometer gives signals particle by particle.

Our source for the decrease of BiFC fluorescence against Nef^LAI values is article PMC10057511.

Sequence of UniProt O94973 (O94973 whole entry, chain 1 of 2, the tested form may be a part): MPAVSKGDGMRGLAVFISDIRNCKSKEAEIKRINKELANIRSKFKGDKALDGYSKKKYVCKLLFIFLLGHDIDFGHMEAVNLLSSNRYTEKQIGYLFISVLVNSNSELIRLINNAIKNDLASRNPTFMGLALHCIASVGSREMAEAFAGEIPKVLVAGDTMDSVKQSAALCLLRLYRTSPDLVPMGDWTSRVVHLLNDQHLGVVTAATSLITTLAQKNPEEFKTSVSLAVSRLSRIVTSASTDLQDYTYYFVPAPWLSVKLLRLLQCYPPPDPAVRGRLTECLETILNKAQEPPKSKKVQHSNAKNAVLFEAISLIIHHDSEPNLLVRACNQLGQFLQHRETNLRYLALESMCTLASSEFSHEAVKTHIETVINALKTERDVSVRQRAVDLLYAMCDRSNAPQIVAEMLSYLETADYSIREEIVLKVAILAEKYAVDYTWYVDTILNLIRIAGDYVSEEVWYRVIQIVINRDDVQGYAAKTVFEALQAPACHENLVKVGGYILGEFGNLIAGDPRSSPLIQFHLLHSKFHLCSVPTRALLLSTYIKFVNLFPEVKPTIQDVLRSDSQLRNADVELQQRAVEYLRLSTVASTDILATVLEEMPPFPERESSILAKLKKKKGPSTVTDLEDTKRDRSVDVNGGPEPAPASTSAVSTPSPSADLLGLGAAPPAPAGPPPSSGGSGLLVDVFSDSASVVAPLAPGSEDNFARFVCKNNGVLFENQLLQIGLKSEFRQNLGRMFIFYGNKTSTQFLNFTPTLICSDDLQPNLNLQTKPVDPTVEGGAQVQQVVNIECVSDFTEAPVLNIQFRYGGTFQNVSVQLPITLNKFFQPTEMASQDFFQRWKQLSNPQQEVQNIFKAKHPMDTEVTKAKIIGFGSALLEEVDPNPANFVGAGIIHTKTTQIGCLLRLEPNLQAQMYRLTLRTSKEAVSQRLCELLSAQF
Sequence of UniProt O94973 (P53680 whole entry, chain 2 of 2, further chain, the tested form may be a part): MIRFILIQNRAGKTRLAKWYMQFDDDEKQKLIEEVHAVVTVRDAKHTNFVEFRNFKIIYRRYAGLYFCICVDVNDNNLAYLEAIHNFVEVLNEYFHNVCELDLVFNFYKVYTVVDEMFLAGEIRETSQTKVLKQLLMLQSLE

“Nef protein from the LAI isolate lacking the leucine-based sorting motif (LL/AA) fused to HA and the N-terminal fragment of Venus (from UniProt P03406 1-206) (natural protein)” gave a decrease of BiFC fluorescence against Nef^LAI of 50%.
